Assay results reported in patent US20100092465A1, “TREATMENT OF GRAFT-VERSUS-HOST DISEASE” (priority 2006, published 2010).
Where “and” joins values, the source holds several entries; their conditions need not be identical. Identical values can stand only once.

Key:
mouse IL-27 = target: T1, mouse IL-27 (Mus musculus, UniProt O35228+Q8K3I6); test: IL-27 inhibition of IL-2 production neutralized by IL-27RA Fc; format: cell-based
T1 sequence (O35228+Q8K3I6 with tags, fused parts or gaps): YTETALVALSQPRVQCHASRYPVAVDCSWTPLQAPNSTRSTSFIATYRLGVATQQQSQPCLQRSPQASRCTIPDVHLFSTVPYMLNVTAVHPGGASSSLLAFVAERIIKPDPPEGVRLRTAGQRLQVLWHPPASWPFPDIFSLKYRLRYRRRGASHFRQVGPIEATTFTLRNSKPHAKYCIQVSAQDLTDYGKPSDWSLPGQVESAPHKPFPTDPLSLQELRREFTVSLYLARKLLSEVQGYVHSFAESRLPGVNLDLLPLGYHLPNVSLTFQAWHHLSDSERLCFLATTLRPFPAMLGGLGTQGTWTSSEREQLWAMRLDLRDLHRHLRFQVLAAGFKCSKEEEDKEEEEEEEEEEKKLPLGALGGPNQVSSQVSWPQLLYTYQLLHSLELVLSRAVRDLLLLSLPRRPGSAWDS
Method: For testing of the soluble receptor, single-chain mouse IL-27 (10 ng/ml) was preincubated for 30 minutes at 37 degrees C. with either IL27RAm(mFc1) (10.0 and 5.0 .micro.g/ml), IL27RA-Fc5, mouse Fc1 protein (10.0 and 5.0 .micro.g/ml), human Fc5 protein (10.0 and 5.0 .micro.g/ml), or no recombinant protein in wells of the anti-CD3 coated plates. 4×10^5 CD4^+ CD62L high cells were added to the wells. Duplicate plates were set up for all experimental conditions. The plates were then cultured at 37 degrees for up to 72 hours. Cell supernatants were collected from one set of plates at 48 hours and from the duplicate set of plates at 72 hours. The supernatants were stored frozen at −80° C.

muIL-27 = target: T2, muIL-27 (Mus musculus, UniProt O35228+Q8K3I6); test: Phospho-STAT3 neutralization assay, total human PBMCs, muIL-27; format: cell-based; details: ligand muIL-27 at EC90
T2 sequence (O35228 19-228): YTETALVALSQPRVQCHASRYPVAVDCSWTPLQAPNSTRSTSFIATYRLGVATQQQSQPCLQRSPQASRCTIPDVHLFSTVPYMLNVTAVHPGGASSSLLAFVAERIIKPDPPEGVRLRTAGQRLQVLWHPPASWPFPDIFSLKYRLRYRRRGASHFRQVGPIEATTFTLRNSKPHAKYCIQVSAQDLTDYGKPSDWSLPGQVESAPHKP
T2 sequence (Q8K3I6 29-234): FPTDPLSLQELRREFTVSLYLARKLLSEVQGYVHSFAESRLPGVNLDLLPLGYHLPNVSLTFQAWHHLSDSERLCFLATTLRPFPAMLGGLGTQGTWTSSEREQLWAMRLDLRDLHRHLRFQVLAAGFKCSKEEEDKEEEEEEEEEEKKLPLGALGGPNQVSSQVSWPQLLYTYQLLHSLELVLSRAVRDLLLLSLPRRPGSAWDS
Description: Whole mouse spleens were harvested from C57 B1/6 mice and washed two times with 1×PBS before being plated out at 2×10^5 cells/well in assay media (RPMI 1640 plus 10% fetal bovine serum) in 96-well, round-bottom tissue culture plates. Total human PBMC (peripheral blood mononuclear cells) were thawed from a frozen vial collected from a leukapherisis donation and washed two times with 1×PBS before being plated out at 10^6 cells/well in assay media in 96-well, round-bottom tissue culture plates. […] Following pre-incubation, treatments were added to the plates containing the cells and incubated together at 37° C. for 15 minutes.
Following incubation, cells were washed with ice-cold wash buffer (BIO-PLEX Cell Lysis Kit, BIO-RAD Laboratories, Hercules, Calif.) and put on ice to stop the reaction according to manufacturer's instructions. […]
Capture beads (BIO-PLEX Phospho-Stat3 Assay, BIO-RAD Laboratories) were combined with 50 μL of 1:1 diluted lysates and added to a 96-well filter plate according to manufacture's instructions (BIO-PLEX Phosphoprotein Detection Kit, BIO-RAD Laboratories). […] After the final wash, beads were resuspended in 125 μL/well of bead suspension buffer, shaken for 30 seconds, and read on an array reader (BIO-PLEX, BIO-RAD Laboratories) according to the manufacture's instructions. Data were analyzed using analytical softward (BIO-PLEX MANAGER 3.0, BIO-RAD Laboratories). […]

In the case of “human IL-27RA-Fc5: human IL27RA extracellular domain (amino acids 1 to 512 of SEQ ID NO:5) fused to Fc5, effector minus human gamma1 Fc; SEQ ID NO:3”, the IL-2 concentration (mouse IL-27; 48 hr, protein conc. 5 (µg/ml; Fc controls in molar equiv.) + IL-27 10 ng/ml) is reported as 5784.11 pg/mL, the IL-2 concentration (mouse IL-27; 48 hr, protein conc. 10 (µg/ml; Fc controls in molar equiv.) + IL-27 10 ng/ml, listed as hIL-27RA) is reported as 5774.94 pg/mL and 5333.6 pg/mL and the IL-2 concentration (mouse IL-27; 72 hr, protein conc. 5 (µg/ml; Fc controls in molar equiv.) + IL-27 10 ng/ml) is reported as 1869.62 pg/mL. For the same substance, the IL-2 concentration (mouse IL-27; 72 hr, protein conc. 10 (µg/ml; Fc controls in molar equiv.) + IL-27 10 ng/ml, listed as hIL-27RA) was 28607.63 pg/mL and 17481.17 pg/mL, the “inhibition (partial block) of the ability of mouse IL-27 to inhibit IL-2 production” value (mouse IL-27; naïve CD4 T cells) was about 50% and the IC50 (muIL-27) was 2.97 nM.
